Data reported in paper PMC11210195.

Key:
mAb1 HH (human) = assay: SPR; antibody Fc variants captured via CaptureSelect Human Fab-kappa ligand on a C1 chip (approx. 60 RU); PRYSPRY injected, five concentrations, two-fold series; 25°C, HBS-EP+ pH 7.4; 1:1 Langmuir fit
mAb1 WT-AAA (human) = assay: as above
mAb1 YTE (human) = assay: as above
Briakinumab (human) = assay: SPR; Biacore T200, C1 chip, 25 °C, HBS-EP+ (10 mM HEPES, 150 mM NaCl, 3 mM EDTA, 0.05% P20, pH 7.4); antibody Fc variants captured via anti-human Fab-kappa nanobody (about 60 RU), Fc only variants amine-coupled (60-80 RU), cytokine-Fc fusions captured via anti-PGLALA F(ab')2 (35-40 RU); PRYSPRY domain injected in five two-fold dilutions from 500, 1000 or 2000 nM; global fit, Langmuir 1:1, affinity mode
Chain of Briakinumab (human) (heavy, as listed by the source, chain 1 of 2): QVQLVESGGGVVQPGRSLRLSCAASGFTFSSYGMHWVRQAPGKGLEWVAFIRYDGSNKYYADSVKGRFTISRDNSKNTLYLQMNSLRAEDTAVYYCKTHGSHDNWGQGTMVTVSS
Chain of Briakinumab (human) (light, as listed by the source, chain 2 of 2): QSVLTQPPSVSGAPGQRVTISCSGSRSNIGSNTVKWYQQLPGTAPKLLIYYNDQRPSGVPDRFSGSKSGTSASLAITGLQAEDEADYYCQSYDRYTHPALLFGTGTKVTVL

[1] = target: mAb1 YTE (human IgG1, M252Y, S254T, T256E) (human); assay: as above

Chain of TRIM21 PRYSPRY domain (P19474 277-475): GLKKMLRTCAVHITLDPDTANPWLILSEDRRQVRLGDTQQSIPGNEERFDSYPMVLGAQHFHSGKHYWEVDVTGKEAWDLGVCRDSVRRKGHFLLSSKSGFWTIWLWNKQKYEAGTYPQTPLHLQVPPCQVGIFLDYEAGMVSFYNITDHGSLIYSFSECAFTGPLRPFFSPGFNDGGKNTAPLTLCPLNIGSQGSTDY

Substance “TRIM21 PRYSPRY domain (from UniProt P19474-1 277-475) (domain or fragment)” has a fold decrease of affinity against mAb1 Fc WT (mAb1 HH (human)) of 2.4 fold, a fold faster off rate against WT (mAb1 HH (human)) of 5 fold and a fold faster on rate against WT (mAb1 HH (human)) of 2 fold. It also gave a Kd (mAb1 WT-AAA (human)) of 40 nM, a stoichiometry N (mAb1 WT-AAA (human)) of 1 and a fold decrease of affinity against mAb1 Fc WT (mAb1 YTE (human)) of 1.7 fold. It also gave a fold faster off rate against WT (mAb1 YTE (human)) of 1.6 fold, a Kd (Briakinumab (human)) of 52.3 nM and a koff (Briakinumab (human)) of 0.115 s⁻¹. For the same substance, the kon (Briakinumab (human)) was 2.2e+06 M⁻¹ s⁻¹, the Kd [1] was 74.8 nM and the koff [1] was 0.16 s⁻¹. It also gave a kon [1] of 2.14e+06 M⁻¹ s⁻¹.
